Four sequences from the supplement of paper PMC11316812 can be followed below.

Data set [1] concerns MCF7. The data set can be described thus: percentage of EdU-negative (G0-arrested) nuclei per well, 72 h; higher = more G0 arrest. As to conditions: reference: sequence is the full UniProt precursor, the tested protein was the secreted form or ectodomain.
Data set [2] has as its system hTERT-HMEC. The data set is described as above. As to conditions: reference: sequence is the full UniProt precursor, the tested protein was the secreted form or ectodomain.
[3] abbreviates: protein concentration 0.00925 µM.
Where [4] appears, read: protein concentration 0.0925 µM.
Where [5] appears, read: protein concentration 0.007835 µM.
The mark [6] stands for this setting: protein concentration 0.07835 µM.
[7] abbreviates: protein concentration 0.01503 µM.
[8] abbreviates: protein concentration 0.1503 µM.
[9] abbreviates: protein concentration 0.0238325 µM.
Setting [10] is: protein concentration 0.238325 µM.

± gives the standard deviation of the averaged measurements.
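Further: secreted proteins added to cultured cells, EdU pulse at the end, nuclei found by Hoechst imaging, EdU status from nuclear versus surrounding ring intensity ratio, PBS as neutral control.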

Regarding “MLPAPAAPRWPPLLLLLLLLLPLARGAPARPAAGGQASELVVPTRLPGSAGELALHLSAFGKGFVLRLAPDDSFLAPEFKIERLGGSGRATGGERGLRGCFFSGTVNGEPESLAAVSLCRGLSGSFLLDGEEFTIQPQGAGGSLAQPHRLQRWGPAGARPLPRGPEWEVETGEGQRQERGDHQEDSEEESQEEEAEGASEPPPPLGATSRTKRFVSEARFVETLLVADASMAAFYGADLQNHILTLMSVAARIYKHPSIKNSINLMVVKVLIVEDEKWGPEVSDNGGLTLRNFCNWQRRFNQPSDRHPEHYDTAILLTRQNFCGQEGLCDTLGVADIGTICDPNKSCSVIEDEGLQAAHTLAHELGHVLSMPHDDSKPCTRLFGPMGKHHVMAPLFVHLNQTLPWSPCSAMYLTELLDGGHGDCLLDAPAAALPLPTGLPGRMALYQLDQQCRQIFGPDFRHCPNTSAQDVCAQLWCHTDGAEPLCHTKNGSLPWADGTPCGPGHLCSEGSCLPEEEVERPKPVADGGWAPWGPWGECSRTCGGGVQFSHRECKDPEPQNGGRYCLGRRAKYQSCHTEECPPDGKSFREQQCEKYNAYNYTDMDGNLLQWVPKYAGVSPRDRCKLFCRARGRSEFKVFEAKVIDGTLCGPETLAICVRGQCVKAGCDHVVDSPRKLDKCGVCGGKGNSCRKVSGSLTPTNYGYNDIVTIPAGATNIDVKQRSHPGVQNDGNYLALKTADGQYLLNGNLAISAIEQDILVKGTILKYSGSIATLERLQSFRPLPEPLTVQLLTVPGEVFPPKVKYTFFVPNDVDFSMQSSKERATTNIIQPLLHAQWVLGDWSECSSTCGAGWQRRTVECRDPSGQASATCNKALKPEDAKPCESQLCPL [Q9UP79]”, the “percentage of EdU-negative” value in data set [1] (setting [3]) was 25.7 ± 2%; in data set [1] (setting [4]) it was 26.53 ± 0.069%; in data set [2] (setting [3]), 5.77 ± 1.1%; in data set [2] (setting [4]), 6.06 ± 0.51%.

As to “MLPARCARLLTPHLLLVLVQLSPARGHRTTGPRFLISDRDPQCNLHCSRTQPKPICASDGRSYESMCEYQRAKCRDPTLGVVHRGRCKDAGQSKCRLERAQALEQAKKPQEAVFVPECGEDGSFTQVQCHTYTGYCWCVTPDGKPISGSSVQNKTPVCSGSVTDKPLSQGNSGRKDDGSKPTPTMETQPVFDGDEITAPTLWIKHLVIKDSKLNNTNIRNSEKVYSCDQERQSALEEAQQNPREGIVIPECAPGGLYKPVQCHQSTGYCWCVLVDTGRPLPGTSTRYVMPSCESDARAKTTEADDPFKDRELPGCPEGKKMEFITSLLDALTTDMVQAINSAAPTGGGRFSEPDPSHTLEERVVHWYFSQLDSNSSNDINKREMKPFKRYVKKKAKPKKCARRFTDYCDLNKDKVISLPELKGCLGVSKEGRLV [Q9H4F8]”, the “percentage of EdU-negative” value stood at 26.5 ± 1.4% in data set [1] (setting [5]), 31.1 ± 0.71% in data set [1] (setting [6]), 4.85 ± 0.098% in data set [2] (setting [5]) and 16.6 ± 0.68% in data set [2] (setting [6]).

Consider “MLPCASCLPGSLLLWALLLLLLGSASPQDSEEPDSYTECTDGYEWDPDSQHCRDVNECLTIPEACKGEMKCINHYGGYLCLPRSAAVINDLHGEGPPPPVPPAQHPNPCPPGYEPDDQDSCVDVDECAQALHDCRPSQDCHNLPGSYQCTCPDGYRKIGPECVDIDECRYRYCQHRCVNLPGSFRCQCEPGFQLGPNNRSCVDVNECDMGAPCEQRCFNSYGTFLCRCHQGYELHRDGFSCSDIDECSYSSYLCQYRCINEPGRFSCHCPQGYQLLATRLCQDIDECESGAHQCSEAQTCVNFHGGYRCVDTNRCVEPYIQVSENRCLCPASNPLCREQPSSIVHRYMTITSERSVPADVFQIQATSVYPGAYNAFQIRAGNSQGDFYIRQINNVSAMLVLARPVTGPREYVLDLEMVTMNSLMSYRASSVLRLTVFVGAYTF”, for which the “percentage of EdU-negative” value in data set [1] (setting [7]) was determined as 23.73 ± 0.068%; in data set [1] (setting [8]), 33 ± 1.2%; in data set [2] (setting [7]) it was 4.54 ± 0.11%; in data set [2] (setting [8]), 7.23 ± 0.73%.

With “MLPCLVVLLAALLSLRLGSDAHGTELPSPPSVWFEAEFFHHILHWTPIPNQSESTCYEVALLRYGIESWNSISNCSQTLSYDLTAVTLDLYHSNGYRARVRAVDGSRHSNWTVTNTRFSVDEVTLTVGSVNLEIHNGFILGKIQLPRPKMAPANDTYESIFSHFREYEIAIRKVPGNFTFTHKKVKHENFSLLTSGEVGEFCVQVKPSVASRSNKGMWSKEECISLTRQYFTVTNVIIFFAFVLLLSGALAYCLALQLYVRRRKKLPSVLLFKKPSPFIFISQRPSPETQDTIHPLDEEAFLKVSPELKNLDLHGSTDSGFGSTKPSLQTEEPQFLLPDPHPQADRTLGNREPPVLGDSCSSGSSNSTDSGICLQEPSLSPSTGPTWEQQVGSNSRGQDDSGIDLVQNSEGRAGDTQGGSALGHHSPPEPEVPGEEDPAAVAFQGYLRQTRCAEEKATKTGCLEEESPLTDGLGPKFGRCLVDEAGLHPPALAKGYLKQDPLEMTLASSGAPTGQWNQPTEEWSLLALSSCSDLGISDWSFAHDLAPLGCVAAPGGLLGSFNSDLVTLPLISSLQSSE”, the “percentage of EdU-negative” value stood at 27.3 ± 1.9% in data set [1] (setting [9]), 25.3 ± 2.5% in data set [1] (setting [10]), 5.02 ± 0.64% in data set [2] (setting [9]) and 5.96 ± 0.77% in data set [2] (setting [10]).
